5 molecules from US20120231006A1 (Amgen, published 2012) can be followed below.

One assay addresses human Orai3 (human, UniProt Q9BRQ5 1-295). In words: FACS, 293EBNA transfectants. As to the method: (§1) Purified monoclonal antibodies from hybridoma supernantants of the subclones derived from initial hits were assessed for binding to human Orai1, Orai2 and Orai3 expressed on HEK-293-EBNA cells along with vector transfected control parental cells. Cells stained with or without primary mAbs were counter-stained with a secondary phycoerythrin-labeled goat (“Gt”) anti-human (“Hu”) IgG F(ab′)₂ antibody fragment and visualized using FACS.
(§2) FACS binding analysis. Transfected 293EBNA cells transiently expressed hOrai1, human Orai2, or human Orai3 (results of binding comparison in FIG. 11A-B), or hOrai1(S218G) (results of binding comparison in FIG. 12A-B); or hOrai1 and hSTIM1; mOrai1 and mouse STIM1; or rat Orai1 and rat STIM1 (results of binding comparison in FIG. 13). The transfected cells were harvested at 48 hours post-transfection. Cells transfected with pcDNA3.1 were used as negative controls. Cells were washed once with ice-cold 1×PBS, resuspended in ice-cold FACS buffer (1×D-PBS+2% goat serum), and 2×10⁵ cells in […] were stained per antibody combination. All antibody incubation steps were performed on ice for 1 hour. […] Next, the unlabelled antibody was detected using goat F(ab′)₂ anti-mouse or anti-human IgG-phycoerythrin (IgG-PE), followed by a wash with 200 μL of ice-cold FACS buffer before flow cytometry analysis. Unstained cells and cells stained with detecting antibodies were used as negative controls. The values of relative level of fluorescence were calculated using FCS Express (De Novo Software) and mean values were calculated using log-transformed data (geometric mean). Purified mAbs were assessed by FACS assay for their ability to specifically bind human Orai1, Orai2 and Orai3 proteins expressed on HEK-293 cells.

Another assay deals with T1, human Orai2 (human, UniProt Q96SN7 1-254).
T1 construct: also called hOrai2
T1 sequence (Q96SN7 whole entry): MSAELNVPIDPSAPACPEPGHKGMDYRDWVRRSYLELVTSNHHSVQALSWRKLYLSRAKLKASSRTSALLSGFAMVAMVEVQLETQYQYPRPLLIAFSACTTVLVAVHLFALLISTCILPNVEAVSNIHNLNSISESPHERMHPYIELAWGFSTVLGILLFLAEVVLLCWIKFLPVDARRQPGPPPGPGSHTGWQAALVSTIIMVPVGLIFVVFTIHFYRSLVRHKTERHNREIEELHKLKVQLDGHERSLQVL
Briefly: FACS, 293EBNA transfectants. Here is the method:
as §1, §2

The target in a further assay is T2, mouse Orai1 (mouse, UniProt Q8BWG9 1-304).
T2 construct: co-expressed with mouse STIM1; also called mOrai1
T2 sequence (Q8BWG9 whole entry): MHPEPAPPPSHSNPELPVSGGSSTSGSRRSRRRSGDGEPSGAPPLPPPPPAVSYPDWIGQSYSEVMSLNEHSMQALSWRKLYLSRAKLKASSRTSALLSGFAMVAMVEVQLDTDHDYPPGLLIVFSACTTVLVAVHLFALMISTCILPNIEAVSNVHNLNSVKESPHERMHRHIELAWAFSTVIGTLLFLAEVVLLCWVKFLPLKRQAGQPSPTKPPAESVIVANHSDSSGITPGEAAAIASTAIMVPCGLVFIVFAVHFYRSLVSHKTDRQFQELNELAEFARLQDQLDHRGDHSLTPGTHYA
Briefly: FACS, 293EBNA transfectants with STIM1, thapsigargin. As to the method:
(§3) FIG. 13A-B illustrates the results of FACS analysis showing binding to human Orai1 expressed on the surface of HEK-293-EBNA cells that were treated with 2 μM Thapsigargin. HEK-293-EBNA cells were transiently transfected with human Orai1 and human STIM1, mouse Orai1 and mouse STIM1, rat Orai1 and rat STIM1 and control empty vector. Transfected cells were stained first with recombinant monoclonal antibodies then counter-stained with a secondary phycoerythrin-labeled Gt anti-Hu IgG F(ab′)₂ or Gt anti-Mu IgG F(ab′)₂ antibody fragment, as appropriate, and visualized using FACS.
as §2
Background: Flow cytometry measures light scatter and fluorescence of single cells or particles in a stream.

The target in the next assay is T3, rat Orai1 (rat, UniProt Q5M848 1-304).
T3 construct: co-expressed with rat STIM1; also called rOrai1
T3 sequence (Q5M848 whole entry): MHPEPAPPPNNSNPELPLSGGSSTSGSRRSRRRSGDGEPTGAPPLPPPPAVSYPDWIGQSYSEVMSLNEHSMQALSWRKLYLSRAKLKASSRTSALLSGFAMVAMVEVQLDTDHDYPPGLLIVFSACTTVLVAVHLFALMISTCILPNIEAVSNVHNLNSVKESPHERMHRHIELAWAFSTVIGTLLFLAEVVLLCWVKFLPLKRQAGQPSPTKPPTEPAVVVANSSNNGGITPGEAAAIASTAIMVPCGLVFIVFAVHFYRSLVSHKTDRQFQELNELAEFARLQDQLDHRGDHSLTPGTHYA
Described as above. As to the method: as §3, §2

Assay [1] deals with T4, mOrai1-hOrai1 ECL2 (KPPAE) protein (human/mouse chimera, UniProt Q8BWG9 1-304 (mouse entry)).
T4 construct: also called Ch
T4 sequence (Q8BWG9 other isoform, or with tags, fused parts or gaps): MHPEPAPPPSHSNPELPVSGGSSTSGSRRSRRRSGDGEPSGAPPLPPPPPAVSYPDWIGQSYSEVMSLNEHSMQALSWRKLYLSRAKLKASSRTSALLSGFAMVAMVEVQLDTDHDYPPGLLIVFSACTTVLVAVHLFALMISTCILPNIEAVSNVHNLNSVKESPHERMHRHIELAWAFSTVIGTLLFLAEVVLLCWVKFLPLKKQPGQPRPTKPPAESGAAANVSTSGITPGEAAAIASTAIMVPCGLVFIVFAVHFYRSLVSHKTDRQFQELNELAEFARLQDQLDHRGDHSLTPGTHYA
In words: flow cytometry on HEK-293 cells transfected with the chimera (loss of binding experiment).

Assay [2] has as its target T5, mOrai1-hOrai1 ECL2 (…) protein (human/mouse chimera, UniProt Q8BWG9 1-304 (mouse entry)).
T5 construct: also called Ch
Described as above.
T5 sequence (Q8BWG9 other isoform, or with tags, fused parts or gaps): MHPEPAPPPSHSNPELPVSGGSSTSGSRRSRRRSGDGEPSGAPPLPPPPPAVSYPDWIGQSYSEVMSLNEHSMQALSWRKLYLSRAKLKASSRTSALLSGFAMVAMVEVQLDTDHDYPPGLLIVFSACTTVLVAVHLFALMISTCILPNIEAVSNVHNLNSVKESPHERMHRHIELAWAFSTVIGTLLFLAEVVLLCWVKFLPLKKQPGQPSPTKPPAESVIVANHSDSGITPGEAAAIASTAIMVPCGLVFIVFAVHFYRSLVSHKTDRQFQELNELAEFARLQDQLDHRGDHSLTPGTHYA

In assay [3] the target is T6, mOrai1-hOrai1 ECL2 (…) protein (human/mouse chimera, UniProt Q8BWG9 1-304 (mouse entry)).
T6 construct: also called Ch
The assay is described as above. The source holds these as a separate data set.
T6 sequence (Q8BWG9 other isoform, or with tags, fused parts or gaps): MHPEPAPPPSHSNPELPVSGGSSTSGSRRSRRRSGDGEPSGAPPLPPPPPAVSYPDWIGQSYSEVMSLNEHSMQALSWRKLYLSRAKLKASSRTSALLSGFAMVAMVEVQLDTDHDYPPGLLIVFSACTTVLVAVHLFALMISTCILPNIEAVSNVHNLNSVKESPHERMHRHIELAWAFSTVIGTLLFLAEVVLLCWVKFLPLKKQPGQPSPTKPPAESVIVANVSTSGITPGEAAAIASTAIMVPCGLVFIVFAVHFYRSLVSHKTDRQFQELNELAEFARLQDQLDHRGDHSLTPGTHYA

Assay [4] addresses T7, mOrai1-hOrai1 ECL2 (SPTKPPAE) protein (human/mouse chimera, UniProt Q8BWG9 1-304 (mouse entry)).
T7 construct: also called Ch
The description is as above.

In assay [5] the target is T8, mOrai1-hOrai1 ECL2 (…) protein (human/mouse chimera, UniProt Q8BWG9 1-304 (mouse entry)).
T8 construct: also called Ch
The assay is described as above. This is another data set of the same source.
T8 sequence (Q8BWG9 other isoform, or with tags, fused parts or gaps): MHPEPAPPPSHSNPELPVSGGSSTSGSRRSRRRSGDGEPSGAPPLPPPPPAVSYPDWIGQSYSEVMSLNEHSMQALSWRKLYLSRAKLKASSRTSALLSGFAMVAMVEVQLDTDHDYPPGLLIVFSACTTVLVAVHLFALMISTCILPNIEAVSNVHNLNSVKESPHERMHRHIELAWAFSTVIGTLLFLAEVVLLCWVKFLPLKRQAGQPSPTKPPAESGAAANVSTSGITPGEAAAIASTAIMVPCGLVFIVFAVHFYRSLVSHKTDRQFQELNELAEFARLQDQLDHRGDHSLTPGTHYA

For assay [6], the target named is T9, mOrai1-hOrai1 ECL2 (VIV) protein (human/mouse chimera, UniProt Q8BWG9 1-304 (mouse entry)).
T9 construct: also called Ch
T9 sequence (Q8BWG9 other isoform, or with tags, fused parts or gaps): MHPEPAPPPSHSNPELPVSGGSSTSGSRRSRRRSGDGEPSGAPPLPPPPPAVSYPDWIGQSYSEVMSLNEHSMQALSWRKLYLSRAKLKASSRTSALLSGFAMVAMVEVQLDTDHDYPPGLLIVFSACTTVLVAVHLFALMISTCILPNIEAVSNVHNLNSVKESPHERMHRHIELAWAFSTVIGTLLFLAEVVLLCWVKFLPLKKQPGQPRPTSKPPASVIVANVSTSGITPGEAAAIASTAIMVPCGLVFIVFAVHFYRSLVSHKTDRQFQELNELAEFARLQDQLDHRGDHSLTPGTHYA
In words: FACS, 293EBNA, RFI-POC grade. Details: concentration or dose not given beside the values. From the text:
(§4) FIG. 16A-D illustrates the results of FACS analysis showing binding to the indicated mOrai1-hOrai1 ECL2 chimeric mutants expressed on the surface of HEK-293-EBNA cells. Transfected cells were stained first with recombinant monoclonal antibodies then counter-stained with a secondary phycoerythrin-labeled goat (“Gt”) anti-human (“Hu”) IgG F(ab′)₂ antibody fragment and visualized using FACS. In FIG. 16B and FIG. 16D, The values of Relative Fluorescence Intensity as Percent of Control (RFI-POC) are calculated from the relative fluorescence intensity geometric mean (Geo Mean). The geometric mean is an average calculated by multiplying a series of numbers and taking the nth root where n is the number of numbers in the series. It is a statistical average of a set of transformed numbers often used to represent a central tendency in a highly variable data set that minimizes the effects of extreme values.
(§5) Table 11A and Table 11B feature a schematic representation of the POC data from FIG. 16B and FIG. 16D, respectively, where the binding results are recorded as (+++) denoting binding POC from 40% to 100%, (++) for POC of 5% to less than 40%, (+) for POC from 1% to less than 5% and (−) as lack of binding with POC less than 1%.

Assay [7] addresses T10, mOrai1-hOrai1 ECL2 (HSD) protein (human/mouse chimera, UniProt Q8BWG9 1-304 (mouse entry)).
T10 construct: also called Ch
Briefly: FACS, 293EBNA, RFI-POC grade. Also on record: concentration or dose not given beside the values.
Description: as §4, §5

Assay [8] deals with T11, mOrai1-hOrai1 ECL2 chimeric protein (human/mouse chimera, UniProt Q8BWG9 1-304 (mouse entry)).
T11 construct: mouse Orai1 with human ECL2; also called Ch
T11 sequence (Q8BWG9 other isoform, or with tags, fused parts or gaps mutant): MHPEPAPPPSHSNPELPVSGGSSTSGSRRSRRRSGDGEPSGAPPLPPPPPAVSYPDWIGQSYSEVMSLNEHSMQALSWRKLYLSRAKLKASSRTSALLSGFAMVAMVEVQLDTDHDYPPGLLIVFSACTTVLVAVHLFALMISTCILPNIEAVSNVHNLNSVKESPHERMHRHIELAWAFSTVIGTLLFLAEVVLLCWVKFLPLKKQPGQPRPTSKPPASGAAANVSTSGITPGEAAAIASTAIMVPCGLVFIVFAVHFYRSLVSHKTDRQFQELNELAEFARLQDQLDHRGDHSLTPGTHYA
Briefly: FACS, 293EBNA, RFI-POC grade. Details: concentration or dose not given beside the values.
Description: as §4, §5

The target of assay [9] is T12, mOrai1-hOrai1 ECL2 (…) protein (human/mouse chimera, UniProt Q8BWG9 1-304 (mouse entry)).
T12 construct: also called Ch
In words: flow cytometry on HEK-293 cells transfected with the chimera (loss of binding experiment). The source holds these as a separate data set.
T12 sequence (Q8BWG9 other isoform, or with tags, fused parts or gaps): as the sequence (Q8BWG9 other isoform, or with tags, fused parts or gaps mutant) above, with P218A, A219E, G221V, A222I, A223V, V226H, T228D counted along it

Assay [10] has as its target T13, mOrai1-hOrai1 ECL2 (AESVIV) protein (human/mouse chimera, UniProt Q8BWG9 1-304 (mouse entry)).
T13 construct: also called Ch
Described as above.

Changes are numbered by the printed parent chain.

T7 sequence (Q8BWG9 other isoform, or with tags, fused parts or gaps): as the sequence (Q8BWG9 other isoform, or with tags, fused parts or gaps mutant) above, with R212S, S215K, K216P, P218A, A219E counted along it
T10 sequence (Q8BWG9 other isoform, or with tags, fused parts or gaps): as the sequence (Q8BWG9 other isoform, or with tags, fused parts or gaps mutant) above, with V226H, T228D counted along it
T13 sequence (Q8BWG9 other isoform, or with tags, fused parts or gaps): as the sequence (Q8BWG9 other isoform, or with tags, fused parts or gaps mutant) above, with P218A, A219E, G221V, A222I, A223V counted along it

B1: mAb 5B1.1 (antibody, human IgG2, lambda, V domains shown)
VH: QVQLVQSGAEVKKPGASVKVSCKASGYTFTDYYINWVRQAPGQGLEWMGWINPNSGGSSYAQKFQGRVTMTRDTSISTAHMELIRLRSDDTAVYYCARERGGIEDWFDPWGQGTLVTVSS
VL: QSVLTQPPSVSGAPGQRVTISCTGSSSNIGAGYDVHWYQQLPGTAPKLLIYGNSNRPSGVPDRFSGSKSGTSASLAITKFQAEDEAVYYCQSYGSGLSGVVFGGGTKLTVLG
notes: fully human IgG2 lambda, Campaign 2; also called mAb 5Bl1.1
Take B1: the binding result with human Orai3 was “no binding (tested: 1 µg)”; with human Orai2 it was “no binding (tested: 1 µg)”; in the assay with mouse Orai1, “no binding (tested: 1 µg)”; with rat Orai1, “no binding (tested: 1 µg)”; in assay [1] it was “no binding”; in [2] it was “no binding”. Also, the binding result in assay [3], in assay [4] and in assay [5] was “no binding” each time. Further, the “POC (percent of control, FACS Geo Mean relative to binding to Ch. 1)” value in [6], in assay [7] and in [8] was 40 to 100% in each case.

B2: mAb 2B4.1 (antibody, human IgG2, lambda, V domains shown)
VH: QVQLVQSGAEVKKPGASVKVSCKASGYTFTDYYMHWVRQAPGQGLEWMGWINPNSGGTNYVQKFQDRVTMTRDTSITTAYMELTRLRSDDTAVYYCAREEGDYGMDVWGQGTTVTVSS
VL: QSVLTQPPSVSGAPGQRVTISCTGSNSNIGTGYDVHWYQKLPGTAPRLLIYSHFNRPSGVPDRFSGSTSGTSASLAITGLQAEDEADYYCQSYDSSLSGSVFGGGTKLTVLG
Regarding B2, the binding result with human Orai3 is “no binding (tested: 1 µg)”; in the assay with human Orai2, “no binding (tested: 1 µg)”; in the assay with mouse Orai1, “no binding (tested: 1 µg)”; with rat Orai1 it was “no binding (tested: 1 µg)”; in assay [1], “no binding”; in assay [9] it was “no binding”. For the same molecule, the binding result in assay [2], in assay [10], in [3], in [4] and in assay [5] was “no binding” throughout.

B3: mAb 2D2.1 (antibody, human IgG2, lambda, V domains shown)
VH: QVQLQQWGAGLLKPSETLSLTCAVYGGSFSGYYWSWIRQPPGKGLEWIGEIDHSGRINYNPALKSRLTISVDTSKNQFSLKLSSVTAADTAVYYCARAGSGGYEDWFDPWGQGTLVTVSS
VL: QSVLTQPPSVSGAPGQRVTISCTGSSSNIGAGYNVHWYQQFPRTDPKLLIYVYNIRPSGVPDRFSGSRSGTSASLAITGLQTEDEADYYCQSYDSSLSGVVFGGGTKLTVLG
notes: fully human IgG2 lambda, Campaign 1; also called mAb 2D.1
As to B3, the binding result in the assay with human Orai3 was “no binding (tested: 1 µg)”; with human Orai2, “no binding (tested: 1 µg)”; in the assay with mouse Orai1 it was “no binding (tested: 1 µg)”; in the assay with rat Orai1, “no binding (tested: 1 µg)”; in assay [1], “no binding”; in assay [2], “no binding”. For the same molecule, the binding result in assay [3], in [4] and in assay [5] was “no binding” in each case. Moreover, the “POC (percent of control, FACS Geo Mean relative to binding to Ch. 1)” value in assay [6], in assay [7] and in assay [8] was 40 to 100% each time.

B4: mAb 2B7.1 (antibody, human IgG2, V domains shown)
VH: B3 VH with R56S, I57T
VL: B3 VL with A31T
notes: fully human, Campaign 1
As to B4, the binding result in the assay with human Orai3 was “no binding (tested: 1 µg)”; in the assay with human Orai2, “no binding (tested: 1 µg)”; with mouse Orai1, “no binding (tested: 1 µg)”; in the assay with rat Orai1, “no binding (tested: 1 µg)”; in assay [1] it was “no binding”; in [2] it was “no binding”. Besides, the binding result in assay [3], in [4] and in assay [5] was “no binding” each time.

B5: mAb 2C1.1 (antibody, human IgG2, lambda, V domains shown)
VH: B3 VH with R56S, I57T
VL: B3 VL
notes: fully human IgG2 lambda, Campaign 1; tested hybridoma-purified and recombinant; also called anti-hOrai1 mAb 2C1.1
As to B5, the binding result in the assay with human Orai3 is “no binding (tested: 1 µg)”; with human Orai2, “no binding (tested: 1 µg)”; with mouse Orai1 it was “no binding (tested: 1 µg)”; in the assay with rat Orai1, “no binding (tested: 1 µg)”; in [1], “no binding”; in [2], “no binding”. Also, the binding result in assay [3], in [4] and in assay [5] was “no binding” each time.
